Source: patent publication US20180099046A1 (JIANGSU HENGRUI MEDICINE, published 2018)

T1: human sclerostin protein (R&D SYSTEM, 1406-ST/CF) (human, UniProt Q9BQB4 24-213, biotinylated in the LRP-6 blocking assay; not labelled in Biacore)
T1 construct: Bought protein; also called human SOST; SOST (R&D, Catalog #1406-ST-025)
T1 sequence (looked up): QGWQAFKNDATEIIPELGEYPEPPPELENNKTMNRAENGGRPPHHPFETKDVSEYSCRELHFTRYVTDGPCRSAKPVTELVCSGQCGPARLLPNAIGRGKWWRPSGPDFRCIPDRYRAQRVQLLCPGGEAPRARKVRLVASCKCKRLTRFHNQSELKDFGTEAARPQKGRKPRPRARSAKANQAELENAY

T2: human sclerostin with a Flag tag (h-SOST-Flag) (human, UniProt Q9BQB4 24-213, biotinylated (biotin labeling kit) in the ELISA)
T2 construct: also called SOST-FLAG protein; not shown: C-terminal Flag tag
T2 sequence (looked up): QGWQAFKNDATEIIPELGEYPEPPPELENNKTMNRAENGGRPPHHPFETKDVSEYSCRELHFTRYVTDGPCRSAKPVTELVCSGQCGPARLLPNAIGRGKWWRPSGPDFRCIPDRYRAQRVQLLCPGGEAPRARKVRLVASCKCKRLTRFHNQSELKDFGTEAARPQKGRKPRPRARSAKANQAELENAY


Key:
[1] = biological target: T1, human sclerostin protein (R&D SYSTEM, …); experiment: competition ELISA: antibody blocks binding of biotinylated human sclerostin to captured LRP-6-Fc
Experimental: (§1) In the method, goat anti-human Fc antibody was coated onto a 96-well EIA/RIA plate, and then LRP-6-Fc fusion protein was added for incubation. The biotinylated sclerostin protein and the anti-sclerostin antibody were co-incubated, and then added to the plate for incubation. After washing the plate, the binding amount between biotinylated sclerostin and LRP-6 was measured, and the IC₅₀ value of the blocking activity of the sclerostin antibody was calculated.
(§2) The goat anti-human Fc antibody was diluted to a concentration of 1 μg/ml with PBS buffer at pH 7.4 (Sigma, P4417-100TAB), and added to a 96-well EIA/RIA plate at a volume of 100 μl/well. Then, the plate was incubated at 37° C. for 2 hours. After discarding the liquid, the plates were blocked with 200 μl/well of blocking solution containing 5% skim milk (Guangming skim milk) in PBS, and incubated at 37° C. for 2.5 hours. After blocking, the blocking solution was discarded and the plate was washed 5 times with PBST buffer (pH 7.4 PBS containing 0.05% tween-20). LPR-6-Fc fusion protein (R&D SYSTEM, 1505-LRP-025) was diluted with sample dilution buffer (pH 7.4 PBS containing 1% BSA) to 1 μg/ml and 50 μl/well was added, then the plate was incubated at 37° C. for 2 hours. […]

[2] = biological target: T3, cynomolgus monkey sclerostin with a Flag tag (cyno-SOST-Flag) (cynomolgus monkey); experiment: SPR (Biacore)
T3 construct: also called monkey SOST

[3] = biological target: T1, human sclerostin protein (R&D SYSTEM, …); experiment: SPR (Biacore)
[4] = biological target: T2, human sclerostin with a Flag tag …; experiment: binding ELISA, biotinylated h-SOST-Flag on streptavidin plate
Experimental: (§3) ELISA experiments were used to detect the binding properties of sclerostin antibodies. Sclerostin with a Flag tag (h-SOST-FLAG, encoded by SEQID NO: 2) was biotinylated with a biotin labeling kit (Dojido Chem, LK03), and immobilized onto a 96-well EIA/RIA plate via binding to streptavidin coated on it. After the antibody was added, the strength of the signal was used to determine the binding activity between the antibody and human sclerostin.
Streptavidin (Sigma, S4762-5MG) was diluted to a concentration of 5 μg/ml with PBS buffer at pH 7.4 (Sigma, P4417-100TAB), and added to a 96-well EIA/RIA plate (Corning,CLS3590-100EA) at a volume of 50 μl/well. Then, the plate was incubated in an incubator at 37° C. for 2 hours. The liquid was discarded, the plates were blocked with 200 μl/well of blocking solution containing 5% skim milk (Guangming skim milk) in PBS, and incubated in an incubator at 37° C. for 2.5 hours or overnight (16-18 hours) at 4° C. After blocking, the blocking solution was discarded and the plate was washed 5 times with PBST buffer (pH 7.4 PBS containing 0.05% tween-20). Biotinylated SOST-FLAG protein (R&D SYSTEM, 1505-LR-025) was diluted with sample dilution buffer (pH 7.4 PBS containing 1% BSA) to 0.5 μg/ml and was added to each well at 50 μl/well, then the plate was incubated in the incubator at 37° C. for 2 hours. After incubation, the reaction solution in the plate was discarded, and the plate was washed with PBST 6 times, and then 50 μl/well of gradient dilution antibody with sample dilution buffer was added, and the plate was incubated in a incubator at 37° C. for 2 hours. The plate was washed 6 times with PBST after incubation, added with 100 μl/well of HRP-labeled goat anti-mouse (Jackson Immuno Research, Cat No. 115-035-003) or HRP-labeled goat anti-human secondary antibody (Jackson Immuno Research, Cat No. 109-035-003) diluted in sample dilution, and incubated at 37° C. for 1 hour. After washing the plates with PBST 6 times, 50 μl/well of TMB substrate (KPL, Cat No. 52-00-03) was added to each well, and incubated at room temperature for 10-15 min, and the reaction was stopped by adding 50 μl 1M H₂SO₄ to each well. The OD value at a wavelength of 450 nm was read on a NOVOStar microplate reader, and then EC₅₀ values of the binding between the sclerostin antibody of the present invention and human sclerostin were calculated.

[5] = biological target: T1, human sclerostin protein (R&D SYSTEM, …); experiment: cell-based or functional assay
[6] = biological target: T3, cynomolgus monkey sclerostin with a …; experiment: competition ELISA: antibody blocks binding of monkey sclerostin to captured LRP-6-Fc
Experimental: as §1, §2

[7] = biological target: T3, cynomolgus monkey sclerostin with a …; experiment: SPR (Biacore X100), antibody captured by anti-human antibody, SOST as analyte, 1:1 Langmuir fit
Text: (§4) The anti-human capture antibody was covalently linked to the CMS biosensor chip (Cat. #BR-1000-12, GE) of a Biacore instrument (Biacore X100, GE) according to the method described in the instructions of anti-human trapping kit (GE, Cat.# BR-1008-39) for affinity capturing an amount of a test antibody. Then, a gradient of concentrations of SOST antigen (human SOST, R&D SYSTEM, Cat.#1406-ST-025/CF, R&D; monkey SOST, cyno-SOST-Flag, obtained by purification, encoded by SEQ ID NO: 4 of Example 1; murine SOST, m-SOST-Flag, obtained by purification, encoded by SEQ ID NO: 3 of Example 1) were flowed through the surface of the biochip. The reaction signal was detected in real-time using a Biacore instrument (GE, BiacoreX100) to obtain the association and dissociation curves. After each cycle of dissociation was finished in the experiment, the biochip was washed and regenerated with regeneration solution in the anti-human capture kit.
(§5) The amino-coupled kit used in the experiments was purchased from GE (Cat. #BR-1000-50, GE), and the buffer was HBS-EP+10× buffer solution (Cat. #BR-1006-69, GE), and the buffer was diluted to 1× (pH 7.4) with D.I. Water.
(§6) The data obtained was fitted by GE BlAevaluation version 4.1 software using a 1:1 Langmuir model, and the affinity value was generated.

[8] = biological target: T1, human sclerostin protein (R&D SYSTEM, …); experiment: as above
Text: as §4, §5, §6

[9] = biological target: T1, human sclerostin protein (R&D SYSTEM, …); experiment: competition ELISA: antibody blocks binding of biotinylated human sclerostin to captured LRP-6-Fc (Test Example 2)
Experimental: as §1, §2

[10] = biological target: T2, human sclerostin with a Flag tag …; experiment: binding ELISA, biotinylated h-SOST-Flag on streptavidin plate (Test Example 1)
Experimental: as §3
Streptavidin (Sigma, S4762-5MG) was diluted to a concentration of 5 μg/ml with PBS buffer at pH 7.4 (Sigma, P4417-100TAB), and added to a 96-well EIA/RIA plate (Corning,CLS3590-100EA) at a volume of 50 μl/well. Then, the plate was incubated in an incubator at 37° C. for 2 hours. The liquid was discarded, the plates were blocked with 200 μl/well of blocking solution containing 5% skim milk (Guangming skim milk) in PBS, and incubated in an incubator at 37° C. for 2.5 hours or overnight (16-18 hours) at 4° C. After blocking, the blocking solution was discarded and the plate was washed 5 times with PBST buffer (pH 7.4 PBS containing 0.05% tween-20). […] The OD value at a wavelength of 450 nm was read on a NOVOStar microplate reader, and then EC₅₀ values of the binding between the sclerostin antibody of the present invention and human sclerostin were calculated.

IC50 [1] [nM] | fold affinity against the positive molecule (Romosozumab) [2] [times] | fold affinity against the positive molecule (Romosozumab) [3] [times] | EC50 [4] [nM] | Cell activity EC50 (nM): alkaline phosphatase (ALP) activity in C2C12 cells given wnt3a and SOST [5] [nM] | IC50 [6] [nM] | Kd [7] [nM] | Kd [8] [nM] | IC50 [9] [nM] | EC50 [10] [nM] | Binder
23.5 | > 10 | ~10 | 0.63 | 84.7 | 110 | 0.03 | 0.064 | – | – | humanized antibody Ab-5 (antibody, human IgG4 S228P, kappa, V domains shown, also called humanized anti-SOST antibody) VH: EVQLVQSGAEVKKPGASVKVSCKASGYTFTDYNLDWLRQAPGEGLEWIGDIDPNDGDILYNQKFRDRVTMTTDTSTSTAYMELRSLRSDDTAVYYCARRWAYYFDYWGQGTTVTVSS VL: DIVMTQSPSSLSASVGDRVTITCKASQSVSNDVAWYQQKPGKSPKLLIYYTSNRFTGVPDRFSGSGSGTDFTLTISSLQPEDFATYFCQQDYSSPVTFGGGTKVEIKR
– | – | – | 0.4 | – | – | – | – | – | – | humanized antibody Ab-9 (antibody, human IgG4 S228P, kappa, V domains shown) VH: EVQLVQSGAEVKKPGASVKVSCKASGYTFTDYNLDWLRQAPGEGLEWIGDIDPNNGDILYNQKFRDRVTMTTDTSTSTAYMELRSLRSDDTAVYYCARRWAYYFDYWGQGTTVTVSS VL: NIVMTQSPSSLSASVGDRVTITCKASQSVSNDVAWYQQKPGKSPKLLIYYTSNRFTGVPDRFSGSGSGTDFTLTISSLQPEDFATYFCQQDYSSPVTFGGGTKVEIKR
– | – | – | 0.54 | – | – | – | – | – | – | humanized antibody Ab-10 (antibody, human IgG1, kappa, V domains shown) VH: EVQLVQSGAEVKKPGASVKVSCKASGYTFTDYNLDWVRQAPGQGLEWMGDIDPNNGDILYNQKFRDRVTMTTDTSTSTAYMELRSLRSDDTAVYYCARRWAYYFDYWGQGTTVTVSS VL: DIQMTQSPSSLSASVGDRVTITCKASQSVSNDVAWYQQKPGKAPKLLIYYTSNRFTGVPSRFSGSGSGTDFTLTISSLQPEDFATYYCQQDYSSPVTFGGGTKVEIKR
27.9 | – | – | – | 71.6 | 46.8 | 0.52 | 0.67 | – | – | Romosozumab (antibody, V domains shown) VH: EVQLVQSGAEVKKPGASVKVSCKASGYTFTDYNMHWVRQAPGQGLEWMGEINPNSGGAGYNQKFKGRVTMTTDTSTSTAYMELRSLRSDDTAVYYCARLGYDDIYDDWYFDVWGQGTTVTVSS VL: DIQMTQSPSSLSASVGDRVTITCRASQDISNYLNWYQQKPGKAPKLLIYYTSRLLSGVPSRFSGSGSGTDFTLTISSLQPEDFATYYCQQGDTLPYTFGGGTKVEIK
– | – | – | 0.701 | – | – | – | – | 9.91 | 0.701 | murine anti-human sclerostin monoclonal antibody Ab-1 (antibody, V domains shown, Mouse hybridoma antibody; also called parental antibody; murine antibody) VH: EVQLQQSGPELVKPGTSVKIPCQTSGYTFTDYNLDWLKQRPGESLEWIGDIDPNNGDILYNQKFRDKATLTVDTSSNTAYLELRSLTSEDTAVYYCARRWAYYFDYWGQGTTLTISS VL: NIVMTQTPKLLFVSAGDRITITCKASQSVSNDVAWYQQKPGQSPKLLIYYTSNRFTGVPDRFTGSGYGTDFTLTINTVQAEDLAVYFCQQDYSSPVTFGAGTKLELK
